Measurements taken from patent US20100311659A1.

Legend:
[1] = tested on: T1, wild-type FVIII (recombinant human factor VIII with deletion of the B domain)
T1 sequence: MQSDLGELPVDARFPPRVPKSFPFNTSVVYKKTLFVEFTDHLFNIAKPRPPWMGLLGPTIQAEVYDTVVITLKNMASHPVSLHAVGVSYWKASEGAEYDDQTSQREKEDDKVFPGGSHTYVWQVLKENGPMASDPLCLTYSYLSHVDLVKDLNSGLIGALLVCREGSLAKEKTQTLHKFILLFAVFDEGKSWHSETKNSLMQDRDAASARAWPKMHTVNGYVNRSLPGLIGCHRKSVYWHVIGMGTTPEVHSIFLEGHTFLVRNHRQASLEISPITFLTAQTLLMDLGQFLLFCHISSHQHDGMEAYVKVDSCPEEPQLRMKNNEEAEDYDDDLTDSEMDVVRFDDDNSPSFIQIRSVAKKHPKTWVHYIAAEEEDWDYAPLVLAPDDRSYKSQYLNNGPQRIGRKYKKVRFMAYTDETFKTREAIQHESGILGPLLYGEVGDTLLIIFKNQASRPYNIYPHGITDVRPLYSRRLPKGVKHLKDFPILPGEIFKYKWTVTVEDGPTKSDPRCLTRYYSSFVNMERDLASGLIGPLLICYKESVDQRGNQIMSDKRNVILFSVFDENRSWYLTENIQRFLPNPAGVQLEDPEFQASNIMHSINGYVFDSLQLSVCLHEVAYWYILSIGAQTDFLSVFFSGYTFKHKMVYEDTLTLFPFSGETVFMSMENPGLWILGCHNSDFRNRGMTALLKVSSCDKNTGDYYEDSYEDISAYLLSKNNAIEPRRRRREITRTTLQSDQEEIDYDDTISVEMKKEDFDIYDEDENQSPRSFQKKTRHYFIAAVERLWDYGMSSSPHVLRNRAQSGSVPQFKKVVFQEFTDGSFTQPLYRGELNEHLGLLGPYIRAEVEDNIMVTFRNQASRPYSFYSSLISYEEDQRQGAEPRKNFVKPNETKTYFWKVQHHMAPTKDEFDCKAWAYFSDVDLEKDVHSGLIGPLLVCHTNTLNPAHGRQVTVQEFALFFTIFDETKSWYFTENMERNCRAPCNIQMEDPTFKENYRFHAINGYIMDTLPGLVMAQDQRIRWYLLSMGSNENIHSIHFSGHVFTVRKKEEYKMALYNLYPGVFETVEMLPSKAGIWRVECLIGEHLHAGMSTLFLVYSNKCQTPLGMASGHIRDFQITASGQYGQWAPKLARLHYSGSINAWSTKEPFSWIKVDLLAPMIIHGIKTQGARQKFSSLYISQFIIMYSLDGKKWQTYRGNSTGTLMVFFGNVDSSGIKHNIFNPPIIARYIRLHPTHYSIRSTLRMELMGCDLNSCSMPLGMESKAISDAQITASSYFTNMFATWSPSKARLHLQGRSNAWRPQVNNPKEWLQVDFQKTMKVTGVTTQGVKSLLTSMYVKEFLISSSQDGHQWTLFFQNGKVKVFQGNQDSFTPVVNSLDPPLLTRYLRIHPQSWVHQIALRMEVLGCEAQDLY

[2] = tested on: FVIII-4A2 (quadruple mutant combining the A2 mutations 409, 462, 507, 629)

## Thrombin
[1]
  activation by thrombin (FXa generation over time): FVIII-4A2 is identically recognized by thrombin as wild-type FVIII with a relative decrease of activity which might be caused by one of the four mutations
[2]
  activation by thrombin (FXa generation over time): FVIII-4A2 is identically recognized by thrombin as wild-type FVIII with a relative decrease of activity which might be caused by one of the four mutations
